“And” between values parts separate entries of the source, which are not always exact repeats. Identical values can stand only once.
Experiments:
Format in all cases: biochemical
[1] = tested on: Bz-PGGXaaXaaXaaXaaAG-OH (acyl donor) / H-XaaXaaXaaAK(DNP)-OH (acyl acceptor); test: Substrate specificity of variants (FIG. 2, FIG. 4)
Method: FIG. 2: Substrate specificity data of chosen variants identified during phage-display selection and screening out of Trypsiligase II-library. 100 μM acyl donor (Bz-PGGXaaXaaXaaXaaAG-OH); 200 μM acyl acceptor (H-XaaXaaXaaAK(DNP)-OH); 1-5 μM enzyme variant; 100 mM HEPES pH7.8, 100 mM NaCl, 10 mM CaCl2, 0.1 mM ZnCl2, T=30° C. UPLC analysis: Waters Acquity Ultra Performance LC, C18-column, gradient 5-60% acetonitrile, 5 min, detection at 360 nm; (k_(cat,AL)^app): apparent turnover rate for the aminolysis reaction. Amino acid variation of acyl donor/acyl acceptor pairs at Xaa-positions are indicated at the y-axis, e.g. YRAH relates to the acyl donor Bz-[…]-OH with the corresponding acyl acceptor H-RAHAK(DNP)-OH.
FIG. 4: Substrate specificity data of chosen variants identified during phage-display selection and screening out of Trypsiligase II-library. […]
Model transamidation reactions were performed in a solution containing 15 to 250 μM acyl donor, 2 eq. of the corresponding acyl acceptor, varying concentrations of trypsin variant, 100 mM HEPES/NaOH pH 7.8, ±0.1 mM ZnC12, 100 mM NaCl, 10 mM CaCl2) at 30° C. […] The composition of the reaction mixture was analyzed by UPCL with method I or II, depending on the absence (method 1) or presence (method II) of a 2,4-dinitrophenyl group within the acyl acceptor (see example 1). […]

[2] = tested on: R1-YRAH-R2 (Bz-PGGYRAHAG-OH) / H-RAHAK(DNP)-OH; test: Zinc dependence of the transamidation reaction, A2C8 and K7F11, YRAH
Method: (§1) Model transamidation reactions were performed in a solution containing 15 to 250 μM acyl donor, 2 eq. of the corresponding acyl acceptor, varying concentrations of trypsin variant, 100 mM HEPES/NaOH pH 7.8, ±0.1 mM ZnC12, 100 mM NaCl, 10 mM CaCl2) at 30° C. Acyl donor and acyl acceptor had the same amino acids in P1′-P3′ position, e.g. Bz-[…]+H-RAHAK-OH or Bz-[…]+H-RKKAK-OH. Variations are indicated. The acyl acceptor could be equipped with a 2,4-Dinitrophenyl group (DNP) at the side chain of the terminal lysine, e.g. H-RAHAK(DNP)-OH or H-RKKAK(DNP)-OH. The reactions were started by the addition of enzyme. To record the time course of product formation and/or for kinetic evaluation of the reaction several aliquots of the reaction mixture were quenched with 25% (v/v) acetic acid at distinct time points within up to 4 hours. The composition of the reaction mixture was analyzed by UPCL with method I or II, depending on the absence (method 1) or presence (method II) of a 2,4-dinitrophenyl group within the acyl acceptor (see example 1). Measurements were performed as duplicates and errors were less than 5%.

[3] = tested on: Bz-PGGYRKKAG-OH (acyl donor) / H-RKKAK-OH (acyl acceptor); test: Model transamidation at high and low substrate concentrations, A2C8 and K7F11; details: for product yield (%) / kcat, AL^app (mkat/mol) / kcat, AL^app/kcat, HL^app / kcat, HL^app (mkat/mol): no ZnCl2
Method: as §1
The suitability of variant A2C8 and K7F11 as transamidases was further investigated in comparison to the native Trypsiligase II. Therefore the enzymatic parameters for the catalyzed transamidation reaction were determined by a model transamidation reaction using peptide substrates with the preferred recognition motive. In addition the model transamidation reaction was performed at high (250 μM) and low (15 μM) substrate concentrations to check, whether the new biocatalysts could also efficiently catalyze the desired reaction at low substrate concentration, which is a crucial requirement for the modification of therapeutic proteins. […] It was assumed that an improved transamidation activity is reached by introducing mutations which improve the affinity of the biocatalyst for the nucleophilic peptide and/or reduce its hydrolysis activity. Therefore corresponding experimental data describing both parameters for the native Trypsiligase II as well as variant A2C8 were determined.

[4] = tested on: R1-YRKK-R2 (Bz-PGGYRKKAG-OH) / H-RKKAK(DNP)-OH; test: Zinc dependence of the transamidation reaction, A2C8 and K7F11, YRKK; details: 100 μM acyl donor, 200 μM acyl acceptor
Method: as §1

[5] = molecular target: T1, Bz-AAYRAHAG-OH (acyl donor) / H-RAHAK(DNP)-OH (acyl acceptor) (Rattus norvegicus, UniProt P00763, D194K/K66E/Y45H/Y65H); test: Zinc dependence of the transamidation reaction, Trypsiligase II
T1 construct: monomeric enzyme species (about 24 kDa); made in house; host or cells: Pichia pastoris X-33 (pPICZalphaA, secreted)
T1 sequence (P00763 24-246 Y45H/Y65H/K66E/D194K): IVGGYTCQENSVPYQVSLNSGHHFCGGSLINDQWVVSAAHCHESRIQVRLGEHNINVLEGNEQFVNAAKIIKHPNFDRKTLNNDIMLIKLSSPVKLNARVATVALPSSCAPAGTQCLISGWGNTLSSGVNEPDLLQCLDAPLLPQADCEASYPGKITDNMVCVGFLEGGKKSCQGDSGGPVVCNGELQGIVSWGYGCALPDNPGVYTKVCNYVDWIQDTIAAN
Method: as §1

[6] = R1-YRAH-R2, 100 μM acyl donor, 200 μM acyl acceptor, absence of zinc ions
[7] = low substrate concentration (15 μM)
[8] = R1-YRAH-R2, 250 μM acyl donor, 500 μM acyl acceptor, absence of zinc ions

B1: A2C8: Trypsiligase II + H40F, A55A, R96E, K97D, L99F, N143E, E151Y, S190V, Q192A, S214G, G219Q, A221T (protein)
chain: IVGGYTCQENSVPYQVSLNSGHFFCGGSLINDQWVVSAAHCHESRIQVRLGEHNINVLEGNEQFVNAAKIIKHPNFDEDTFNNDIMLIKLSSPVKLNARVATVALPSSCAPAGTQCLISGWGETLSSGVNYPDLLQCLDAPLLPQADCEASYPGKITDNMVCVGFLEGGKKVCAGDSGGPVVCNGELQGIVGWGYQCTLPDNPGVYTKVCNYVDWIQDTIAAN
acceptance of LRKH as acyl donor [1]: accepts LRKH as acyl donor
substrate sequence with highest activity [1]: highest activity for YRKK substrate sequence
dependence for zinc ions ([2]; A2C8: substrates with YRAH and YRKH sequence, K7F11: YRAH substrate only): no dependence for zinc ions
kcat, AL^app + Zn^2+ (mkat/mol) ([2]; R1-YRAH-R2, 100 μM acyl donor, 200 μM acyl acceptor, 2 μM trypsin variant, 0.1 mM ZnCl2): 9.46 mkat/mol
product yield + Zn^2+ (%) ([2]; R1-YRAH-R2, 100 μM acyl donor, 200 μM acyl acceptor, 0.1 mM ZnCl2): 53.3%
kcat, AL^app − Zn^2+ (mkat/mol) [2, 6]: 14.51 mkat/mol
product yield − Zn^2+ (%) [2, 6]: 50.4%
product yield (%) ([3]; [Substrate] 15 μM Bz-PGGYRKKAG-OH, 30 μM H-RKKAK-OH): 46% and 46.2%
kcat, AL^app (mkat/mol) ([3]; [Substrate] 15 μM): 10.68 mkat/mol
kcat, AL^app/kcat, HL^app ([3]; [Substrate] 15 μM): 7.4
kcat, HL^app (mkat/mol) ([3]; [Substrate] 15 μM): 1.44 mkat/mol
product yield (%) ([3]; [Substrate] 250 μM Bz-PGGYRKKAG-OH, 500 μM H-RKKAK-OH): 64.9%
kcat, AL^app (mkat/mol) ([3]; [Substrate] 250 μM): 71.61 mkat/mol
kcat, AL^app/kcat, HL^app ([3]; [Substrate] 250 μM): 70 and 70.9
kcat, HL^app (mkat/mol) ([3]; [Substrate] 250 μM): 1.01 mkat/mol
apparent turnover rate of aminolysis relative to hydrolysis [3, 7]: sevenfold higher apparent turnover rate
fold higher product yield than the native Trypsiligase II [3, 7]: 14
kcat, AL^app + Zn^2+ (mkat/mol) ([4]; 0.1 mM ZnCl2): 18.04 mkat/mol
product yield + Zn^2+ (%) ([4]; 0.1 mM ZnCl2): 59.0%
kcat, AL^app − Zn^2+ (mkat/mol) ([4]; absence of zinc ions): 17.7 mkat/mol
product yield − Zn^2+ (%) ([4]; absence of zinc ions): 59.7%

B2: Trypsiligase II (trypsin variant Y39H/Y59H/K60E/D189K) (protein)
chain: T1 sequence (P00763 24-246 Y45H/Y65H/K66E/D194K)
dependence for zinc ions [5]: strong dependence for zinc ions
reduction of the product yield in the absence of zinc ions (factor) [5]: 4
kcat, AL^app + Zn^2+ (mkat/mol) ([5]; R1-YRAH-R2, 250 μM acyl donor, 500 μM H-RAHAK(DNP)-OH, 2 μM trypsin variant, 0.1 mM ZnCl2): 11.19 mkat/mol
product yield + Zn^2+ (%) ([5]; R1-YRAH-R2, 250 μM acyl donor, 500 μM acyl acceptor, 0.1 mM ZnCl2): 18% and 18.1%
kcat, AL^app − Zn^2+ (mkat/mol) [5, 8]: 0.89 mkat/mol
product yield − Zn^2+ (%) [5, 8]: 4% and 4.2%
drop of apparent turnover rate for the aminolysis reaction in the absence of zinc ions (factor) ([5]; YRAH): 12
